Data on nine molecules can be found in US20230248800A1.

The target of the test is human V1a receptor (human) (UniProt P37288). Nature of the test: cell-based or functional assay.
Chain of human V1a receptor (human) (P37288 whole entry): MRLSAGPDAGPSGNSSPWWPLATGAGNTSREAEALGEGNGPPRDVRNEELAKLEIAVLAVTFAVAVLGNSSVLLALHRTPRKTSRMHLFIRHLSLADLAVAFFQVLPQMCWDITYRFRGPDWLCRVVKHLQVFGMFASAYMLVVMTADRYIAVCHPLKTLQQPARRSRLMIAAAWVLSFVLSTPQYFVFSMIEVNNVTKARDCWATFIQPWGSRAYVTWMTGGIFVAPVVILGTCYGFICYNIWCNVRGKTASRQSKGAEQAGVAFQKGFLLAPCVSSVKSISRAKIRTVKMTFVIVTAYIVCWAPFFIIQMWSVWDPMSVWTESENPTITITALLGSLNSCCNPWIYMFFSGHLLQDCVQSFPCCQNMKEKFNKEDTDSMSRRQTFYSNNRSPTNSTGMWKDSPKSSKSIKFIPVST

B1: Mpa-Tyr-Phe-Hgn-Asn-Cys-Pro-Lys(X)a-Gly-NH2; (X)a = (Gly)9 [SEQ ID NO. 16] (peptide)
peptide: XFXNCPXG
modifications: Mpa at position 1, disulfide bond between Mpa and Cys; Hgn at position 4; (Gly)9 on the side chain of Lys 8; C-terminal amide
As to B1, the Estimated V1a EC50 (calcium flux) is 105 nM and the V1a Highest agonist effect (% of AVP) was 28.1 % of AVP.

B2: Mpa-Tyr-Phe-Hgn-Asn-Cys-Pro-Lys(X)a-Gly-NH2; (X)a = (Gly)8 [SEQ ID NO. 15] (peptide)
peptide: XFXNCPXG
modifications: Mpa at position 1, disulfide bond between Mpa and Cys; Hgn at position 4; (Gly)8 on the side chain of Lys 8; C-terminal amide
For the molecule B2, the Estimated V1a EC50 (calcium flux) was 226 nM and the V1a Highest agonist effect (% of AVP) was 24.8 % of AVP.

B3: Mpa-Tyr-Phe-Hgn-Asn-Cys-Pro-Lys(X)a-Gly-NH2; (X)a = (Gly)2 [SEQ ID NO. 9] (peptide)
peptide: XFXNCPXG
modifications: Mpa at position 1, disulfide bond between Mpa and Cys; Hgn at position 4; (Gly)2 on the side chain of Lys 8; C-terminal amide
As to B3, the Estimated V1a EC50 (calcium flux) was 38.2 nM and the V1a Highest agonist effect (% of AVP) was 37 % of AVP.

B4: Mpa-Tyr-Phe-Hgn-Asn-Cys-Pro-Lys(X)a-Gly-NH2; (X)a = (Gly)7 [SEQ ID NO. 14] (peptide)
peptide: XFXNCPXG
modifications: Mpa at position 1, disulfide bond between Mpa and Cys; Hgn at position 4; (Gly)7 on the side chain of Lys 8; C-terminal amide
With B4, the Estimated V1a EC50 (calcium flux) is 30.9 nM and the V1a Highest agonist effect (% of AVP) is 26.1 % of AVP.

B5: Mpa-Tyr-Phe-Hgn-Asn-Cys-Pro-Lys(X)a-Gly-NH2; (X)a = (Gly)6 [SEQ ID NO. 13] (peptide)
peptide: XFXNCPXG
modifications: Mpa at position 1, disulfide bond between Mpa and Cys; Hgn at position 4; (Gly)6 on the side chain of Lys 8; C-terminal amide
For B5, the Estimated V1a EC50 (calcium flux) was 45.9 nM and the V1a Highest agonist effect (% of AVP) is 28.2 % of AVP.

B6: Mpa-Tyr-Phe-Hgn-Asn-Cys-Pro-Lys(X)-Gly-NH2; X = Gly [SEQ ID NO. 8] (peptide)
peptide: XFXNCPXG
modifications: Mpa at position 1, disulfide bond between Mpa and Cys; Hgn at position 4; Gly on the side chain of Lys 8; C-terminal amide
For the molecule B6, the Estimated V1a EC50 (calcium flux) was 25.3 nM and the V1a Highest agonist effect (% of AVP) was 40.3 % of AVP.

B7: Mpa-Tyr-Phe-Hgn-Asn-Cys-Pro-Lys(X)a-Gly-NH2; (X)a = (Gly)5 [SEQ ID NO. 12] (peptide)
peptide: XFXNCPXG
modifications: Mpa at position 1, disulfide bond between Mpa and Cys; Hgn at position 4; (Gly)5 on the side chain of Lys 8; C-terminal amide
For the molecule B7, the Estimated V1a EC50 (calcium flux) is 50.1 nM and the V1a Highest agonist effect (% of AVP) was 29.6 % of AVP.

B8: Mpa-Tyr-Phe-Hgn-Asn-Cys-Pro-Lys(X)a-Gly-NH2; (X)a = (Gly)3 [SEQ ID NO. 10] (peptide)
peptide: XFXNCPXG
modifications: Mpa at position 1, disulfide bond between Mpa and Cys; Hgn at position 4; (Gly)3 on the side chain of Lys 8; C-terminal amide
With B8, the Estimated V1a EC50 (calcium flux) is 53.5 nM and the V1a Highest agonist effect (% of AVP) was 32.9 % of AVP.

B9: Mpa-Tyr-Phe-Hgn-Asn-Cys-Pro-Lys(X)a-Gly-NH2; (X)a = (Gly)4 [SEQ ID NO. 11] (peptide)
peptide: XFXNCPXG
modifications: Mpa at position 1, disulfide bond between Mpa and Cys; Hgn at position 4; (Gly)4 on the side chain of Lys 8; C-terminal amide
For B9, the Estimated V1a EC50 (calcium flux) is 161 nM and the V1a Highest agonist effect (% of AVP) is 33.6 % of AVP.
